According to a protein production outcome set (Wang et al. 2014):

Test: label from the status in PepcDB records

| Sequence | protein production |
| --- | --- |
| MRRFLLSAAKILVSAALLYLALRKTDFAALAARIDATSFGWLAAAVAATIFQLFVNAVRWRAIGACCEAPLTTGRSMRYAMIGSFFNQTLPSAIGGDAVRVWLLARAGAGWRAATYSVFVDRATGLIALSAIIFVTLPWTLRLIDNADGRLGLMLLDFAALGAGVVFLTLPFLRFGLLDRIWATRHMRGCSEVALKALSSPKSAVILIATSLIIPILAVVIAWCVARAIESPSSFVQLFELVPPIMLITMIPISIAGWGVREASMGLAFGYAGLNPSDGVAVSLLFGAVYFVVGGIGGLIWIMSAEKAAKGDAPIEVPE | failed |
| MDNSGIYVGLDIGTTSIKVIVAERVKGQMNVIGVGSARSNGLSRGVIVDIDKAAETIRSAVRQAEEKASIEIKKVIAGVPANLVKIERCRGMIAVADESKEINNEDVQNVAAAALVQSLPPEREVLDVIPDEFVVDGFDGIKDPRGMVGVRLEMHGTLFTGPKTIIHNTRKALEKAGLQIEQIVIAPLALSSLVLNDGEQDFGSIIIDMGGGQTTAAVIHDHQLKYTYVDQEGGQYITKDISVVLNTSIENAEKLKRDYGYADAQQASDDELFPVDVVGQSTPEQISEQYLAEIIEARLDQIFDKVKQHLDEIRALELPGGIVLTGGVAALPGITDLAAQRFGTRVRVFTPNQMGLRHPSFDEALAVIKYQAALSEVTLLVKSALTGDTRASVALEFADTTPAPSQPAAQPKKATKKQSAPQAPQEQADPDHKGTVERVKGFFNHFFD | failed |
| FKAVTYVADPVDVTYQSLNVSVPVEIDGKAVDASHAPIVFSNAVGGYMPSSTAGNTGIGQGVNAKLSLASGFVVVDPGARGRTLVDTAGVYYGVAPAAIVDLKAAIRYLRHNKGRVPGDTDRIVATGVSAGGALTSLLGASGDSDRYAPYLQELGAADASDAVFAAAPYCPITDLEHADMAYEWNWGTNPLPTGAQVDQTLSKELRSGFAEYQASLNLRGKNGFGRITARNYDAYMVKTHLEPSATRYLGALPDADRAAYLTANPWITWSGGRASFGWGDFLTHVGARKKNVPSFDTFTLAAPENNLFGVATTKARHFTQWSLRKATGDDGARLDADLPEKIDLMNPMYFIEHQNPGRSRHWFIRVGTKDSDTSLTVVGNLTAGLENLGDDVDTYMYWDGGHGANQDAPDFITWIRSVSG | failed |
| MTSIHVQVPATTANIGAGFDCLGAALSLHNQFQFRLAGESEPFFSLELVGADVETQKLEATADNLLYRAFAKVFATLGQPVPHVNIAIDLKVPLSRGLGSSATAIVGGLVGANALAGSPLSQREIMNLAIEMEGHPDNVVPALLGGCQLSVKHQQDWVI | failed |
| MRLILNLIWLFFGGIWLALGYVFFGIIACIFIVTIPAGIASFRMANYALWPFGRTVVRNPKAGGFSALSNGLWFIIAGLWLAIGHLTTAAAQAITIIGIPLAIANIRMIPVTCFPFGKEIYDSNRIPFGYEPMVKF | failed |
| NPDYVEVDRILEVAHTKDAETGEEVTHYLVKWCSLPYEESTWELEEDVDPAKVKEFESLQV | not failed |
| MNKGNTLDSIPTDLILEIFSRLSAKSVGRLRCLSKLWRKGEWFFFSSLQPQNLYEKPFLVVAADFHMKFSEDMSHDIYSYASGLIYFPKMLIENEKSGAIRVICNPITGQYAILPKLITLQAARSFLGFDPIDNQFKVLLVNNDIVNNDMDILTLGIGELMSEKLKFIEAKCFFALDDVQLINYKGKLGGISWNNHEVAPVELSMWVLEDVEKQEWSKNVYILPKNVVPNNWLHAAGVTVEGDIVFSEAVVSNPFDVFYFNPEKNTLQHVETHCNHEVFDDENLVNIFVDHVEDLKFDVMKPTYAATSIRPTEQKHKPTSTETSMSRKDHQVRTIDQPQQDRCTFESINNKFDVMCLLDDD | not failed |
| MLNNKRLFTSESVTEGHPDKIADQVSDAILDAILKDDPNARVACETTVTTGMALIAGEISTTTYVDIPKVVRETIKEIGYTRAKYGYDYETMAILTAIDEQSPDIAQGVDKALEYRDKDSEEEIEATGAGDQGLMFGYATNETETYMPLAIYLSHQLAKRLSDVRKDGTLNYLRPDGKVQVTVEYDENDNPVRIDTIVVSTQHAEDVTLEQIQEDIKAHVIYPTVPENLINEQTKFYINPTGRFVIGGPQGDAGLTGRKIIVDTYGGYARHGGGCFSGKDPTKVDRSAAYAARYVAKNIVAAGLADQCEVQLAYAIGVAEPVSIAIDTFGTGKVSEGQLVEAVRKHFDLRPAGIIKMLDLKQPIYKQTAAYGHFGRTDVLFPWEKLDKVEELKDAVK | failed |
| MALILRPPHGYSVRNRYWPGSGASNLPYLFEDFALDGDRRELRRGNSLIAVEPQVFDLLQYLIRNRERVVSKDDLVDAVWQGRIVSDATLASRVNAARSALQDNGEQQRLVRTFPRRGFRFVGTVHEEAGAEATAPVEPAKPGLGIPARPSIAVLPFVNLSGDPDQDYFADGMVEDIITGLSRIRWLFVIARNSSFTYKGRAVDMKQVGQELGVRYVLEGSVRKVGSRVRITGQLIDTEDGGHLWAERYDRELTDVFALQDEITISVVAAIEPNLRRAEIERVKRQRPDSLDAYDLFLRALPDVYTFMPQGAARGLPLLDQALAIEPSYALVHGFAAWAHQTLFIRGGMQAEHSGKASRHAHAAIEHGSGDAMALALAGFTIGLVEHDRKLADEAFSQALSLSASCAFVYAFGCVPVAYGGDATRAIDWGEQALRLNPLDAMNCVPQGMIGFGNFLAGRHEQAIAAGRRAVEMNPGFSILHGWLAAPLARLGRIEEAKAAGSRLMALDPHFTIGRWSAAVGLAPAIIDDVTEAMRLAGLPA | failed |
| ASRDLLKEFPQPKNLLNSVIGRALGISHAKDKLVYVHTNGPKKKKVTLHIKWPKSVEVEGYGSKKIDAERQAAAAACQLFKGWGLLGPRNELFDAAKYRVLADRFG | not failed |
| MSRPEGHTLRRRLAGVVFVLVPALLIWLAVAVYDKKFTDSDPVVVETGSAGNQMHPGAEVKLRGVVVGEVRAIDATGDGARLTLAMKPGALDDVPSDVRAQMLPTTLFGERFVALVPPANPSPEPLAAGAVVPQDRSANAIELQQVLDDVLPMLTAVQPQKLSATLSAVSQALEGRGERLGDTLTLLDEHLAEFNPNLPALNRDLKELVKVSHVYADAAPDVITALTDFTTTSGTLAEQEADLAATLGATTRTAEDVTAFLHKNKDNIIRLGDTSRPTLELLAEYSPAFPCTLRTLAEFVPAMDKALGKGTDRPGIHVDVTSVASRGAYRPGRDTPVYDSGGGPRCPSVPYLGALPRPTARTAAPAAEQDLGPANSPQENDLVNELLAPAAGKSPGDLPDWSSLLVGPVYRGTEVTLGLEHHHHHH | failed |
| MGDPAPARSLDDIDLSALRDPAGIFELVEVVGNGTYGQVYKGRHVKTGQLAAIKVMDVTEDEEEEIKQEINMLKKYSHHRNIATYYGAFIKKSPPGNDDQLWLVMEFCGAGSVTDLVKNTKGNALKEDCIAYICREILRGLAHLHAHKVIHRDIKGQNVLLTENAEVKLVDFGVSAQLDRTVGRRNTFIGTPYWMAPEVIACDENPDATYDYRSDIWSLGITAIEMAEGAPPLCDMHPMRALFLIPRNPPPRLKSKKWSKKFIDFIDTCLIKTYLSRPPTEQLLKFPFIRDQPTERQVRIQLKDHIDRSRKKRGEKEETEYEYSGSEEEDDSHGEEGEPSSIMNVPGESTLRREFLRLQQENKSNSEALKQQQQLQQQQQRDPEAHIKHLLHQRQRRIEEQKEERRRVEEQQRREREQRKLQEKEQQRRLEDMQALRREEERRQAEREQEYKRKQLEEQRQSERLQRQLQQEHAYLKSLQQQQQQQQLQKQQQQQLLPGDRKPLYHYGRGMNPADKPAWAREVEERTRMNKQQNSPLAKSKPGSTGPEPPIPQASPGPPGPLSQTPPMQRPVEPQEGPHKSLVAHRVPLKPYAAPVPRSQSLQDQPTRNLAAFPASHDPDPAIPAPTATPSARGAVIRQNSDPTSEGPGPSPNPPAWVRPDNEAPPKVPQRTSSIATALNTSGAGGSRPAQAVRARPRSNSAWQIYLQRRAERGTPKPPGPPAQPPGPPNASSNPDLRRSDPGWERSDSVLPASHGHLPQAGSLERNRVGVSSKPDSSPVLSPGNKAKPDDHRSRPGRPADFVLLKERTLDEAPRPPKKAMDYSSSSEEVESSEDDEEEGEGGPAEGSRDTPGGRSDGDTDSVSTMVVHDVEEITGTQPPYGGGTMVVQRTPEEERNLLHADSNGYTNLPDVVQPSHSPTENSKGQSPPSKDGSGDYQSRGLVKAPGKSSFTMFVDLGIYQPGGSGDSIPITALVGGEGTRLDQLQYDVRKGSVVNVNPTNTRAHSETPEIRKYKKRFNSEILCAALWGVNLLVGTENGLMLLDRSGQGKVYGLIGRRRFQQMDVLEGLNLLITISGKRNKLRVYYLSWLRNKILHNDPEVEKKQGWTTVGDMEGCGHYRVVKYERIKFLVIALKSSVEVYAWAPKPYHKFMAFKSFADLPHRPLLVDLTVEEGQRLKVIYGSSAGFHAVDVDSGNSYDIYIPVHIQSQITPHAIIFLPNTDGMEMLLCYEDEGVYVNTYGRIIKDVVLQWGEMPTSVAYICSNQIMGWGEKAIEIRSVETGHLDGVFMHKRAQRLKFLCERNDKVFFASVRSGGSSQVYFMTLNRNCIMNW | failed |
| MDCRKMARFSYSVIWIMAISKVFELGLVAGLGHQEFARPSRGYLAFRDDSIWPQEEPAIRPRSSQRVPPMGIQHSKELNRTCCLNGGTCMLGSFCACPPSFYGRNCEHDVRKENCGSVPHDTWLPKKCSLCKCWHGQLRCFPQAFLPGCDGLVMDEHLVASRTPELPPSARTTTFMLVGICLSIQSYY | failed |
| MITVVIASRLREDRLDYLTAMHASLTRQSVPWEAVIALDGASPDRLPRQLAQDPRVDTLVLPRPVGAACARNLALTQVRTRYVNWADDDDEFTDDAMSVRLETLESTGVGWCAGWSEDQFRDGSTRLWRCPTPPGRHEAGDVWTFWKSPADTIPIGPTTILARTDLVRAAPMGGLVQGEDYCAALGVTALAPGILLPLPVYRYRKWGGQMTAQDGYDQLETAAREHAWAYGRSLRAVLRGGEDLVHVLEHHHHHH | failed |
| MKTAKRRAFAFATFAIAGLAACENTSSPSLPKDQVMAPGVDLRAAAKQDSSEAVEAGHRMIAAGEYELALRAFNRAALSRGALDAEILSGLGTANLGLGRLGQAEELLRRAVRDDAAQPVDYNNLGVLLMEQGNTAEALQYFRRAFALSNGENIAIRDNLRLALAKTENSATLEAEKSSEYKLVRRGNSDFVIRPTP | failed |
| MLKILVRLYLVIIVAYAGALLFIPDTIVGLFRDRFMAYNLDQAKGVQALIVRQFRQAPREQWPAVEQELASDFAPLELQLLRRDQAGLSDEEQARLEQGLYAVRIAEWGYYETVLAPLDKEWLIRLHSPPDPLDINVLSWGVTVLIGAAMLGCLLLWVWPHWRDLERLKETARRLGQGQMAERTHISPHSNIGELAGVFDTMASDLERHVNQQRELLNAVSHELRTPLTRLDFGLVLLFDEVPPASRKRLLELVGHVRELDELVLELLSYSRLYNADQARERVEVSLLELVDSVLGGFAEELDGRGIQWEVRAEGELPRFVLDPRLTARAVQNLVRNAMRYCDESLLLRLRLEADGACLLTVEDDGIGVPVEERERVFQPFYRLDRSRDRNTGGFGLGLAISRRAIEGQGGTLTLAQSALGGAQFRIRLPAGG | failed |
| VQLVRLLEEKIKSLQIEIENLRKELNYYKAEMEKMLSPPLIEAVVLDVLPDGRVLVRSSSGPNLVVNIASHIDQKLIKPGISVALNQRGSTILEVLPQKEDPIVKTMEIIERPN | not failed |
| ELALWSPEVKIVELVKDCKGLGFSILDYQDPLDPTRSVIVIRSLVADGVAERSGGLLPGDRLVSVNEYCLDNTSLAEAVEILKAVPPGLVHLGIC | not failed |
| NTAPSLTVPECAICLQTCVHPVSLPCKHVFCYLCVKGASWLGKRCALCRQEIPEDFLD | not failed |
| MSVQLKCDAVNCVYNRSHLCSAEEIEVQGGETTGGDATFCGTFSSKSLGNFVSSLGNMNYSGSLKQAVSAEPIMDPKVHCNAVNCTYNDQRYCHADQVEIRNEVSHTAEELEHHHHHH | not failed |
